Molecular target: the molecule itself
Assay: cryo-EM structure

B1: Xenopus tropicalis TRPV4 crystallization and cryo-EM construct TRPV4_(cryst) (133–797 N647Q) (domain or fragment, UniProt A0A6I8RQZ3 133-797, looked up)
chain: APSPDPPPVIKMFNRHMLFDIVSRGSTAELEGFLPFLLAQKKRLTDEEFREASTGKTCLTKALMNLNGGKNDTIPMLIDIAEKTGNLREFINSPFRDVYYRGQTALHIAIERRCKHYVELLVEKGADVHAQARGRFFQPKDEGGYFYFGELPLSLAACTNQPDIVHYLTENAHKKADIRRQDSRGNTVLHALVAIADNTRENTKFVTKVYDLLVIKCVKLYPDSSLEAIFNNDSMSPLMMAAKLGKIGIFQHIIRLEIKDEEARHLSRKFRDWAYGPVYSSLYDLSMLDTCGEEVSVLEILVYNSKVENRHEMLAVEPINELLRDKWQKFGAVSFYISVVSYLIAMIIFTLIAYYRPMDGTPPYPYRTTMDYMRLAGEIVTLLTGVVFFITNIKDLFMKKCPGVNSLFIDGSFQLLYFIYSVLVIITAVLYLVGIESYLAVMVFALVLGWMNALYFTRGLKLTGTYSIMLQKILFKDLFRFLLVYLLFMIGYASALVSLLNPCTSQESCIETSSQCTVPEYPSCRDSSTFSKFLLDLFKLTIGMGDLEMINSAKYPAVFIILLVTYIILTFVLLLNMLIALMGETVGQVSKESKQIWKLQWATTILDIERSFPVCMRKAFRSGEMVTVGKNLDGTPDRRWCFRVDEVNWSHWNQNLGIINEDPGR
stoichiometry N: 4

— publication PMC6252174 (Nature structural & molecular biology, 2018)
